Experiments:
Assay type in all cases: cell-based
SH-SY5Y cells [1] = assay: Live/dead assay; details: Aβ42 10 μM, 24 h, calcein-AM/propidium iodide, ImageJ analysis
SH-SY5Y cells [2] = assay: Membrane toxicity immunocytochemistry; details: Aβ42 10 μM, 3 h, pH 7.4, OC antibody, confocal
SH-SY5Y cells [3] = assay: Neuronal rescue from Aβ42-induced toxicity; details: Aβ42 10 μM preincubated 48 h pH 7.4, 24 h treatment, Alamar blue

For “Aβ42: Amyloid beta 42 peptide, the most toxic form of Aβ (PDB: 1Z0Q)”, the “Dead cells, Aβ42 alone” value (SH-SY5Y cells [1]) was ~36%, the “Total area covered by red fluorescence-labelled Aβ aggregates, Aβ42 alone” value (SH-SY5Y cells [2]) was 12.3% and the “Cell viability with Aβ42 alone” value (SH-SY5Y cells [3]) was ~64%.

— paper PMC8827053 (RSC Chemical Biology, 2021)
